Results reported in patent publication US7943141B2, “Activated polyoxazolines and compositions comprising the same” (Serina Therapeutics, Inc., priority 2007, dated 2011).

T1: catalase (Bos taurus, UniProt P00432)
T1 sequence (P00432 2-527 limits assumed): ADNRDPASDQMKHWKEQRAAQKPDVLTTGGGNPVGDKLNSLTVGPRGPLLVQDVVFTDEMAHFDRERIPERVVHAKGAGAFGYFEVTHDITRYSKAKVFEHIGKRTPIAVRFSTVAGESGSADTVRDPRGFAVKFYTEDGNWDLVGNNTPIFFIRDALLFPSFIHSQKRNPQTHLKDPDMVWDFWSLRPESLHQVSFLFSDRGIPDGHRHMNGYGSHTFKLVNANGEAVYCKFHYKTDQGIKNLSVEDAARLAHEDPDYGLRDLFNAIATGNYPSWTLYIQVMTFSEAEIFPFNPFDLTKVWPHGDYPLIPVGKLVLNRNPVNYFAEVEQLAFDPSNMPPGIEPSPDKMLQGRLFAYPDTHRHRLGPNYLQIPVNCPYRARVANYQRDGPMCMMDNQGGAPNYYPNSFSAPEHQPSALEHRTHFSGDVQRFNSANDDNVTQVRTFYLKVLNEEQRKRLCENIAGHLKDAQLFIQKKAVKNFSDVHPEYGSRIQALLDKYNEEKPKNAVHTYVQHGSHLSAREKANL

T2: ribonuclease A (Bos taurus, UniProt P61823)
T2 sequence (P61823 27-150): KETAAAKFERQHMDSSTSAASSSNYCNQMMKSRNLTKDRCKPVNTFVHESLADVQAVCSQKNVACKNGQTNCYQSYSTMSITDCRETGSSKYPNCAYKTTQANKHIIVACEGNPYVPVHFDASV


Columns and labels:
catalase = target: T1, catalase; assay: Catalase enzymatic activity (method of Beers and Sizer); type: biochemical; details: native enzyme
Excerpt: (§1) To evaluate the different influence on enzyme properties as a function of polymerization with POZ derivatives of the present disclosure and corresponding PEG polymers known in the art, three different enzymes, ribonuclease A, uricase and catalase, were modified with M-PEOZ-O—CH2—CO2—NHS (6 kDa) and PEG-O—CH2—CO2—NHS (5.5 kDa). To facilitate the comparison, each enzyme was modified under similar conditions regarding polymer to enzyme ratios, buffer, pH and reaction temperature.
The conditions of enzyme modification with the POZ and PEG polymers described above were 0.2 M, pH 8.5 in borate buffer. The amount of POZ and PEG polymer used for modification was calculated on the basis of calculated total available amino groups in each enzyme. […]
To the three enzymes solutions (2.5 mg/ml) M-POZ-O—CH2—CO2—NHS or PEG-O—CH2—CO2—NHS solid were added at room temperature at a molar ratio of polymer to protein amino groups of 2/1 and 1/1 respectively. Protein concentration of the native forms of ribonuclease, uricase and catalase was evaluated spectrophotometrically using molar extinction coefficients of 9.45×10^3, 13×10^3 and 1.67×10^5 at 280 nm, respectively. […]
The degree of protein modification was evaluated colorimetrically by TNBS assay and expressed as percentage of conjugate amino groups to the total ones present on the protein. […]

ribonuclease A = target: T2, ribonuclease A; assay: Ribonuclease enzymatic activity (method of Crook et al.); type: biochemical
Excerpt: as §1
The conditions of enzyme modification with the POZ and PEG polymers described above were 0.2 M, pH 8.5 in borate buffer. The amount of POZ and PEG polymer used for modification was calculated on the basis of calculated total available amino groups in each enzyme. For example, ribonuclease A has a molecular weight of 13.7 kDa and 11 available amino groups; uricase has a molecular weight of 130 kDa and 100 available amino groups; and catalase has a molecular weight of 240 kDa and 112 available amino groups.
To the three enzymes solutions (2.5 mg/ml) M-POZ-O—CH2—CO2—NHS or PEG-O—CH2—CO2—NHS solid were added at room temperature at a molar ratio of polymer to protein amino groups of 2/1 and 1/1 respectively. Protein concentration of the native forms of ribonuclease, uricase and catalase was evaluated spectrophotometrically using molar extinction coefficients of 9.45×10^3, 13×10^3 and 1.67×10^5 at 280 nm, respectively. After 30 minutes, polymer-enzyme conjugates were purified from unreacted polymer and n-hydroxysuccinimide by gel filtration chromatography Sephadex G-75 column, with 0.1M phosphate buffer, pH 7.4 as eluent.
The degree of protein modification was evaluated colorimetrically by TNBS assay and expressed as percentage of conjugate amino groups to the total ones present on the protein. Enzymatic activity of native and modified enzymes was evaluated as follows: ribonuclease activity was assayed by the method of Crook et al. (Biochem J. 1960 February; 74:234-8); uricase activity was determined by the method of Mahler (Anal Biochem. 1970 November; 38(1):65-84); and catalase was assayed according to a method reported by Beers and Sizer (J. Biol. Chem. 1952 March; 195(1):133-40).

| % activity (catalase) | % activity (ribonuclease A; native enzyme) | % activity (ribonuclease A; NH2:polymer molar ratio 1:1) | % activity (ribonuclease A; NH2:polymer molar ratio 2:1) | Molecule |
| --- | --- | --- | --- | --- |
| 100% |  |  |  | Catalase |
|  | 100% |  |  | RNAse: native ribonuclease A (protein, UniProt P61823 27-150, looked up) Ribonuclease pancreatic: KETAAAKFERQHMDSSTSAASSSNYCNQMMKSRNLTKDRCKPVNTFVHESLADVQAVCSQKNVACKNGQTNCYQSYSTMSITDCRETGSSKYPNCAYKTTQANKHIIVACEGNPYVPVHFDASV |
|  |  | 15% | 10% | PEG/RNAse: ribonuclease A modified with PEG-O—CH2—CO2—NHS (5.5 kDa) (conjugate, UniProt P61823 27-150, looked up, PEG 5.5 kDa conjugate) Ribonuclease pancreatic: KETAAAKFERQHMDSSTSAASSSNYCNQMMKSRNLTKDRCKPVNTFVHESLADVQAVCSQKNVACKNGQTNCYQSYSTMSITDCRETGSSKYPNCAYKTTQANKHIIVACEGNPYVPVHFDASV |
|  |  | 50% | 30% | POZ/RNAse: ribonuclease A modified with M-PEOZ-O—CH2—CO2—NHS (6 kDa) (conjugate, UniProt P61823 27-150, looked up, M-PEOZ 6 kDa conjugate) Ribonuclease pancreatic: KETAAAKFERQHMDSSTSAASSSNYCNQMMKSRNLTKDRCKPVNTFVHESLADVQAVCSQKNVACKNGQTNCYQSYSTMSITDCRETGSSKYPNCAYKTTQANKHIIVACEGNPYVPVHFDASV |
